From US20220090025A1

Target: CAR (coxsackie and adenovirus receptor) (human) (UniProt P78310)
Experiment: cell-based or functional assay

Sequence of UniProt P78310 (P78310 20-365): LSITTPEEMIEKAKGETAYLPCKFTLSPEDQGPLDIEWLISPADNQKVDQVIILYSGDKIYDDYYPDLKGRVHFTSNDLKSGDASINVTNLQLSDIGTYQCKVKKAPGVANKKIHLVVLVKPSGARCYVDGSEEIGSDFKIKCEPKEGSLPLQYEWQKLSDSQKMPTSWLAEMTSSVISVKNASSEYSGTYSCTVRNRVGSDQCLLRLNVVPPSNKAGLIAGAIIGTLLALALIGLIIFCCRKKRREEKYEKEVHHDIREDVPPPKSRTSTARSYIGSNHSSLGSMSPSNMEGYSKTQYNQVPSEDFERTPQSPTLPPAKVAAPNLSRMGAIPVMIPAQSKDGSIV

CAR-specific fiber protein (fiber protein of adenovirus) (ligand)
reduction of GFP transduction of U343 cells by naked type Ad (MOI 20) after pretreatment with fiber protein at 0.2 µg/ml, flow cytometry: 67 % reduced
reduction of GFP transduction of U343 cells by naked type Ad (MOI 20) after pretreatment with fiber protein at 2 µg/ml, flow cytometry: 90 % reduced
